Molecular target: T1, BSA (bovine serum albumin) (bovine (송아지 혈청 알부민), UniProt P02769 25-607)
T1 construct: Negative control antigen of the phage ELISA; also called 송아지 혈청 알부민
Assay: phage ELISA, 1% BSA coated, anti-M13 peroxidase, OD 492 nm

T1 sequence (P02769 25-607 limits assumed): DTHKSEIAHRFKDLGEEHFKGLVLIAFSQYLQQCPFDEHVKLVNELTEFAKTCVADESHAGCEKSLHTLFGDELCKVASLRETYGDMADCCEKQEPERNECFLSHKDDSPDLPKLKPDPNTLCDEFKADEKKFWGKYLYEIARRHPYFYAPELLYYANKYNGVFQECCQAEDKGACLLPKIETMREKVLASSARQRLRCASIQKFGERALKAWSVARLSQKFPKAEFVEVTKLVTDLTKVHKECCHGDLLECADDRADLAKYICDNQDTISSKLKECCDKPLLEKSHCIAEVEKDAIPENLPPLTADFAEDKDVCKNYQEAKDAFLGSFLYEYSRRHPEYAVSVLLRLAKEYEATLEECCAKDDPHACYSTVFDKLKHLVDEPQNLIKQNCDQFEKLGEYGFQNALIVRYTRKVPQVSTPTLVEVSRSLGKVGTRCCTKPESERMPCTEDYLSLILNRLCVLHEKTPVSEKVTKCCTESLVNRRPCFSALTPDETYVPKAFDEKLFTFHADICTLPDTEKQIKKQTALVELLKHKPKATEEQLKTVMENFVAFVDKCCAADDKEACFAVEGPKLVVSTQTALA

Binder | binding result
SC05-157 (scFv) scFv: EVQLVESGAEVKKPGESLKISCKGSGYSFTNYWIGWVRQMPGKGLEWMGIVYPGDSDTRYSPSFQGQVTISADKSISTAYLQWSSLKASDTAVYYCARRMAVAGSDAFDIWGQGTMVTVSSGTGGSGGTGSGTGGSTQAVLTQPSSASGTPGQTVTISCSGSTSNIGSHNVNWYQHLPGTAPKLLIYINNKRPSGVPDRFSGSKSGSSASLAISGLQSEDEADYYCAAWDDSLRRPVFGGGTQLTVL | no binding
SC06-079 (scFv) scFv: EVQLVESGGGLVQPGGSLRLSCAASGFTFSSYAMSWVRQAPGKGLEWVSAISGTGGSAYYADSVKGRFTISRDNSKNTVYLQMNSLRAEDTAVYYCAKGHSSGTNWGQGTLVTVSSGTGGSGGTGSGTGGSTSYVLTQPPSASGTPGQRVTISCSGSSSNIGSNFVYWYQQLPGTAPKLLIYRNNQRPSGVPDRFSGSKSGTSASLAISGLRSEDEADYYCAAWDDSLSGVLFGGGTQLTVL | no binding
SC06-087 (scFv) scFv: EVQLVESGGGLVKPGGSLRLSCAASGFTFSSNSMNWVRQAPGKGLEWVSFISSSSTYIYYADSVKGRFTISRDNAKNSLYLQMNSLRAEDTAVYYCARESAAGISYDAFDIWGQGTMVTVSSGTGGSGGTGSGTGGSTQSALTQPASVSGSPGQSITISCTGTSSDVGGYKYVSWYQQHPGKAPKLMIYEVSNRPSGVSNRFSGSKSGSTASLTISGLQAEDEADYYCSSYTSSSTLGVFGTGTKVTVL | no binding
SC06-077 (scFv) scFv: QVQLVQSGAEVKKPGSSVKVSCKASGGTFSSYAISWVRQAPGQGLEWMGGIIPIFGTANYAQKFQGRVTITADESTSTAYMELSSLRSEDTAVYYCAREGGVGPAFDIWGQGTMVTVSSGTGGSGGTGSGTGGSTDIQMTQSPDSLAVSLGERATINCKSSQSVLHNSNNKNYLAWYQQKPGQPPKLLIYWASTRESGVPDRFSGSGSGTDFTLTISSLQAEDVAVYYCQQYYGSPYTFGQGTKLEIK | no binding
SC06-071 (scFv) scFv: EVQLVESGGGVVQPGRSLRLSCAASGFTFSSYGMHWVRQAPGKGLEWVAMIWSDGSNKYYADSVKGRFTISRDNSKNTLYLQMNSLRVEDTAVYYCASNYGSGSYWGGFDYWGQGTLVTVSSGTGGSGGTGSGTGGSTQSALTQPASVSGSPGQSITISCTGTSSDVGGYNLVSWYQQHPGKAPKLMIYEGSKRPSGVSNRFFGSKSGDTASLTISGLQAEDEADYYCSSYTTSSTHVFGTGTKVTVL | no binding
SC06-089 (scFv) scFv: EVQLVETGGGLVQPGGSLRLSCAASGFTFSSYSMNWVRQAPGKGLEWVSFISSSSSTIYYADSVKGRFTIARDNAKNSLYLQMNSLRDEDTAVYYCARPVGTGISLFHAFDIWGQGTMVTVSSGTGGSGGTGSGTGGSTQSVLTQPPSVSVAPGQTARITCGGNNIGSKYVHWYQQKPGQAPVLVVYDDSDRPSGIPERFSGSNSGNTATLTISRVEAGDEADFYCQVWDGSSDPVVFGGGTKLTVL | no binding
SC06-078 (scFv) scFv: EVQLVESGAEVKKPGSSVKVSCKASGGTFSSYAISWVRQAPGQGLEWMGGIIPIFGTANYAQKFQGKVTITADESTSTAYMELSSLRSEDTAVYYCARLSPRYYGMDVWGQGTTVTVSSGTGGSGGTGSGTGGSTQSALTQPRSVSGSPGQSVTISCTGTSSDVGGYNYVSWYQQHPGKAPKLMIYGGSERPSGVSNRFSGSKSGNTASLTISGVQAEDEADYYCSSYTSSGTLLFGGGTQLTVL | no binding
SC06-092 (scFv) scFv: EVQLVESGGGLVQPGRSLRLSCTGSGFTFGDYAMSWFRQAPGKGLEWVGFIRNKAYGGTAEYAASVKDRFIISRDDSKSIAYLQMNSLKTEDTAVYYCVRREYDTGWLDYWGQGTLVTVSSGTGGSGGTGSGTGGSTQSALTQPPSASGSPGQSVTISCTGTSSDVGGYNYVSWYQRHPGKAPKLMIYDVTDRPSGVSNRFSGSKSGNTASLTISGLQAEDEADYYCSSYTSSSTSAVFGGGTKLTVL | no binding
